Test results: patent US20180371086A1

Tests used:
Test in all cases: cell-based or functional assay
[1] = target: Env of 92 subtype B viruses
[2] = target: 22 primary HIV-1 isolates or clones (mean over all viruses of Table 13)
[3] = target: HIV-1 Env (gp120) of 4 primary HIV-1 isolates or molecular clones on infected CEM-NKr-CCR5-LucR CD4 T cells

B1: PGT121.56 (antibody, human IgG1, lambda)
heavy: QMQLQESGPGLVKPSETLSLTCSVSGASISDSYWSWIRRSPGKGLEWIGYVHKSGDTNYSPSLKSRVNLSLDTSKNQVSLSLVAATAADSGKYYCARTLHGRRIYGIVAFNEWFTYFYMDVWGNGTQVTVSSASTKGPSVFPLAPSSKSTSGGTAALGCLVKDYFPEPVTVSWNSGALTSGVHTFPAVLQSSGLYSLSSVVTVPSSSLGTQTYICNVNHKPSNTKVDKKVEPKSCDKTHTCPPCPAPELLAGPDVFLFPPKPKDTLMISRTPEVTCVVVDVSHEDPEVKFNWYVDGVEVHNAKTKPREEQYNSTYRVVSVLTVLHQDWLNGKEYKCKVSNKALPLPEEKTISKAKGQPREPQVYTLPPSREEMTKNQVSLTCLVKGFYPSDIAVEWESNGQPENNYKTTPPVLDSDGSFFLYSKLTVDKSRWQQGNVFSCSVLHEALHSHYTQKSLSLSPGK
light: not shown
Coverage (%) [1]: 62% | Median IC95 (neutralization) [1]: 0.265 µg/mL

B2: PGT121.60 hIgG1/hLambda (antibody)
heavy: QMQLQESGPGLVKPSETLSLTCSVSGASISDSYWSWIRRSPGKGLEWIGYVHKSGDTNYNPSLKSRVHLSLDTSKNQVSLSLTGVTAADSGKYYCARTLHGRRIYGIVAFNEWFTYFYMDVWGTGTQVTVSSASTKGPSVFPLAPSSKSTSGGTAALGCLVKDYFPEPVTVSWNSGALTSGVHTFPAVLQSSGLYSLSSVVTVPSSSLGTQTYICNVNHKPSNTKVDKKVEPKSCDKTHTCPPCPAPELLAGPDVFLFPPKPKDTLMISRTPEVTCVVVDVSHEDPEVKFNWYVDGVEVHNAKTKPREEQYNSTYRVVSVLTVLHQDWLNGKEYKCKVSNKALPLPEEKTISKAKGQPREPQVYTLPPSREEMTKNQVSLTCLVKGFYPSDIAVEWESNGQPENNYKTTPPVLDSDGSFFLYSKLTVDKSRWQQGNVFSCSVLHEALHSHYTQKSLSLSPGK
light: not shown
EC50 (µg/mL), killing of HIV-infected cells (Mean; mean over all viruses) [2]: 1.03 µg/mL | Emax, killing of HIV-infected cells (Mean; mean over all viruses) [2]: 56% | Coverage (%) [1]: 59.8% | Median IC95 (neutralization) [1]: 0.177 µg/mL | EC50 of killing infected cells, median [3]: > 100 µg/mL | proportion of infected cells killed (Emax), median [3]: 18%
